Laboratory results published in paper PMC10397247.
Values belong to the binder of their own block, whether it stands above or below them.

Tests used:
Core_ININ-es_KEEK = biological target: T1, Core_ININ-es_KEEK; experiment: two-hybrid library CCmax; details: mean of both orientations;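 also: natural log of median RNA to DNA barcode read ratio; higher means stronger binding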
T1 chain: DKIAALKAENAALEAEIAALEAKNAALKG

4H370-bH = biological target: T2, 4H370-bH; experiment: two-hybrid library CCNG1;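 also: natural log of median RNA to DNA barcode read ratio; higher means stronger binding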
T2 chain: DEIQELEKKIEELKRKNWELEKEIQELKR

4H568-bH = biological target: T3, 4H568-bH; experiment: two-hybrid library CCNG1;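 also: natural log of median RNA to DNA barcode read ratio; higher means stronger binding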
T3 chain: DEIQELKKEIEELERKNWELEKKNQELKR

4H2667-bH = biological target: T4, 4H2667-bH; experiment: two-hybrid library CCNG1;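 also: natural log of median RNA to DNA barcode read ratio; higher means stronger binding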
T4 chain: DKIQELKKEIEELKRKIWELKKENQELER

P8A-bS = biological target: T5, P8A-bS; experiment: two-hybrid library CCNG1;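 also: natural log of median RNA to DNA barcode read ratio; higher means stronger binding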
T5 chain: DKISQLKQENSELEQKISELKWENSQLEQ

4H3907-bH = biological target: T6, 4H3907-bH; experiment: two-hybrid library CCNG1;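 also: natural log of median RNA to DNA barcode read ratio; higher means stronger binding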
T6 chain: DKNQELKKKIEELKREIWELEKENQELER

4H1406-bH = biological target: T7, 4H1406-bH; experiment: two-hybrid library CCNG1
T7 chain: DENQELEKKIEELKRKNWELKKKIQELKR

4H1369-bH = biological target: T8, 4H1369-bH; experiment: two-hybrid library CCNG1
T8 chain: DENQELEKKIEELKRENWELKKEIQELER

4H1845-bH = biological target: T9, 4H1845-bH; experiment: two-hybrid library CCNG1
T9 chain: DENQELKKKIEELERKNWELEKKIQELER

4H2610-bH = biological target: T10, 4H2610-bH; experiment: two-hybrid library CCNG1
T10 chain: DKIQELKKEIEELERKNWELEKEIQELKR

4H967-bH = biological target: T11, 4H967-bH; experiment: two-hybrid library CCNG1
T11 chain: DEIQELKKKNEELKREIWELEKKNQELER

4H687-bH = biological target: T12, 4H687-bH; experiment: two-hybrid library CCNG1
T12 chain: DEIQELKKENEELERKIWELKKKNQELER

4H3592-bH = biological target: T13, 4H3592-bH; experiment: two-hybrid library CCNG1
T13 chain: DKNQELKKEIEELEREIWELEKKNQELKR

4H1387-bH = biological target: T14, 4H1387-bH; experiment: two-hybrid library CCNG1
T14 chain: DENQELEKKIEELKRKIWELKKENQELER

4H1193-bH = biological target: T15, 4H1193-bH; experiment: two-hybrid library CCNG1
T15 chain: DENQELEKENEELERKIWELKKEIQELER

4H4038-bH = biological target: T16, 4H4038-bH; experiment: two-hybrid library CCNG1
T16 chain: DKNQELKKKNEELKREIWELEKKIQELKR

4H1328-bH = biological target: T17, 4H1328-bH; experiment: two-hybrid library CCNG1
T17 chain: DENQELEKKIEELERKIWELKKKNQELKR

4H462-bH = biological target: T18, 4H462-bH; experiment: two-hybrid library CCNG1
T18 chain: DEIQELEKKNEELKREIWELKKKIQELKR

4H331-bH = biological target: T19, 4H331-bH; experiment: two-hybrid library CCNG1
T19 chain: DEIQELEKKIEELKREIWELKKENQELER

4H3782-bH = biological target: T20, 4H3782-bH; experiment: two-hybrid library CCNG1
T20 chain: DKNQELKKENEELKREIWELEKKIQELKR

4H4001-bH = biological target: T21, 4H4001-bH; experiment: two-hybrid library CCNG1
T21 chain: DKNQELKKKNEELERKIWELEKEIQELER

4H72-bH = biological target: T22, 4H72-bH; experiment: two-hybrid library CCNG1
T22 chain: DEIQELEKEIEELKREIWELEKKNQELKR

4H3606-bH = biological target: T23, 4H3606-bH; experiment: two-hybrid library CCNG1
T23 chain: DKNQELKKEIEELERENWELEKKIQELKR

4H3189-bH = biological target: T24, 4H3189-bH; experiment: two-hybrid library CCNG1
T24 chain: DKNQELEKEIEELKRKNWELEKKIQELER

4H2576-bH = biological target: T25, 4H2576-bH; experiment: two-hybrid library CCNG1
T25 chain: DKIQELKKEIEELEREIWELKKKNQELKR

4H953-bH = biological target: T26, 4H953-bH; experiment: two-hybrid library CCNG1
T26 chain: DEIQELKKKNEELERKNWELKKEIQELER

4H797-bH = biological target: T27, 4H797-bH; experiment: two-hybrid library CCNG1
T27 chain: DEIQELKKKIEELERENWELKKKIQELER

4H3601-bH = biological target: T28, 4H3601-bH; experiment: two-hybrid library CCNG1
T28 chain: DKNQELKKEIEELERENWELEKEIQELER

4H918-bH = biological target: T29, 4H918-bH; experiment: two-hybrid library CCNG1
T29 chain: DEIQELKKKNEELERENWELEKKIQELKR

4H607-bH = biological target: T30, 4H607-bH; experiment: two-hybrid library CCNG1
T30 chain: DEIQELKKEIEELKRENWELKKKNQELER

4H2697-bH = biological target: T31, 4H2697-bH; experiment: two-hybrid library CCNG1
T31 chain: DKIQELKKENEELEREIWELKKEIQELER

4H883-bH = biological target: T32, 4H883-bH; experiment: two-hybrid library CCNG1
T32 chain: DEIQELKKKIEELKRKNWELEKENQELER

4H1446-bH = biological target: T33, 4H1446-bH; experiment: two-hybrid library CCNG1
T33 chain: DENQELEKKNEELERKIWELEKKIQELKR

4H3843-bH = biological target: T34, 4H3843-bH; experiment: two-hybrid library CCNG1
T34 chain: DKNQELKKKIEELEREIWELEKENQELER

4H895-AA = biological target: T35, 4H895-AA; experiment: two-hybrid library CCmax; details: mean of both orientations
T35 chain: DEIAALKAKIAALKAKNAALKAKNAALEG

4H486-AA = biological target: T36, 4H486-AA; experiment: two-hybrid library CCmax; details: mean of both orientations
T36 chain: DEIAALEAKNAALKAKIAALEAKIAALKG

4H58-AA = biological target: T37, 4H58-AA; experiment: two-hybrid library CCmax; details: mean of both orientations
T37 chain: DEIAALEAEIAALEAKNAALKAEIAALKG

P1-AA-1HGe-W = biological target: T38, P1-AA-1HGe-W; experiment: two-hybrid library CCmax; details: mean of both orientations
T38 chain: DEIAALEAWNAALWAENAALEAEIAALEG

4H535-AA = biological target: T39, 4H535-AA; experiment: two-hybrid library CCmax; details: mean of both orientations
T39 chain: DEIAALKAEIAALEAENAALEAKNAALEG

4H3782-AA = biological target: T40, 4H3782-AA; experiment: two-hybrid library CCmax; details: mean of both orientations
T40 chain: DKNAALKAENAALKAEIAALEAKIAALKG

4H2898-AA = biological target: T41, 4H2898-AA; experiment: two-hybrid library CCmax; details: mean of both orientations
T41 chain: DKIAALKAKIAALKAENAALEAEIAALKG

4H_BCR = biological target: T42, 4H_BCR; experiment: two-hybrid library CCmax; details: mean of both orientations
T42 chain: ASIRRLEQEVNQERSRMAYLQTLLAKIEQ

P1-AA-1HGe-Q = biological target: T43, P1-AA-1HGe-Q; experiment: two-hybrid library CCmax; details: mean of both orientations
T43 chain: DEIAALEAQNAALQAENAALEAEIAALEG

4H3705-AA = biological target: T44, 4H3705-AA; experiment: two-hybrid library CCmax; details: mean of both orientations
T44 chain: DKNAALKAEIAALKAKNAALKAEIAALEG

P1-AA-1HGe-T = biological target: T45, P1-AA-1HGe-T; experiment: two-hybrid library CCmax; details: mean of both orientations
T45 chain: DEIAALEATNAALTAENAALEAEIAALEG

4H3365-AA = biological target: T46, 4H3365-AA; experiment: two-hybrid library CCmax; details: mean of both orientations
T46 chain: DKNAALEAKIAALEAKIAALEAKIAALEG

P1-AA-1HGe-H = biological target: T47, P1-AA-1HGe-H; experiment: two-hybrid library CCmax
T47 chain: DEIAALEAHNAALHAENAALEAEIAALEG

P1-AA-1HGe-A = biological target: T48, P1-AA-1HGe-A; experiment: two-hybrid library CCmax; details: mean of both orientations
T48 chain: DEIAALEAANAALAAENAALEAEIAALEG

4H3020-AA = biological target: T49, 4H3020-AA; experiment: two-hybrid library CCmax; details: mean of both orientations
T49 chain: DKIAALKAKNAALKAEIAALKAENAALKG

4H_APH = biological target: T50, 4H_APH; experiment: two-hybrid library CCmax; details: mean of both orientations
T50 chain: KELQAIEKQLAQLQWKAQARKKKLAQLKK

P1-AA-1HGe-Y = biological target: T51, P1-AA-1HGe-Y; experiment: two-hybrid library CCmax; details: mean of both orientations
T51 chain: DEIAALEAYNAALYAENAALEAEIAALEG

4H3651-AA = biological target: T52, 4H3651-AA; experiment: two-hybrid library CCmax; details: mean of both orientations
T52 chain: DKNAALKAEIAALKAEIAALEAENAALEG

GCN2_T = experiment: two-hybrid library CCmax
4H355-AA = biological target: T53, 4H355-AA; experiment: two-hybrid library CCmax; details: mean of both orientations
T53 chain: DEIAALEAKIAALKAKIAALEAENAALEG

P1-AA-1HGe-D = biological target: T54, P1-AA-1HGe-D; experiment: two-hybrid library CCmax; details: mean of both orientations
T54 chain: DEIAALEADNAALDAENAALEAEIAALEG

P1-AA-1HGe-R = biological target: T55, P1-AA-1HGe-R; experiment: two-hybrid library CCmax; details: mean of both orientations
T55 chain: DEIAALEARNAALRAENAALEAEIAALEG

4H2750-AA = biological target: T56, 4H2750-AA; experiment: two-hybrid library CCmax
T56 chain: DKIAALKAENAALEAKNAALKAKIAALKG

4H_GCN4 = experiment: two-hybrid library CCmax; details: mean of both orientations
4H_GCN4, sequence (chain, as listed by the source): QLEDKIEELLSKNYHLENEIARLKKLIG

P1-AA = biological target: T57, P1-AA; experiment: two-hybrid library CCmax; details: mean of both orientations
T57 chain: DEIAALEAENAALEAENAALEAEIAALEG

P1-AA-1HGe-M = biological target: T58, P1-AA-1HGe-M; experiment: two-hybrid library CCmax; details: mean of both orientations
T58 chain: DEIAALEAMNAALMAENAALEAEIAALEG

P1-AA-1HGe-S = biological target: T59, P1-AA-1HGe-S; experiment: two-hybrid library CCmax; details: mean of both orientations
T59 chain: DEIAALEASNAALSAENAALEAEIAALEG

4H465-AA = biological target: T60, 4H465-AA; experiment: two-hybrid library CCmax; details: mean of both orientations
T60 chain: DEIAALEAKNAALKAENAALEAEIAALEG

interaction score (Core_ININ-es_KEEK): 2.15
B1: Core_ININ-es_EKKE (peptide)
chain: DEIAALEAKNAALKAKIAALKAENAALEG

interaction score (4H370-bH): -0.564
interaction score (4H568-bH): -0.254
interaction score (4H2667-bH): -0.964
interaction score (P8A-bS): 0.622
interaction score (4H3907-bH): 0.0514
interaction score (4H1406-bH): -0.835
interaction score (4H1369-bH): -0.969
interaction score (4H1845-bH): -0.0802
interaction score (4H2610-bH): -0.0229
interaction score (4H967-bH): -0.174
interaction score (4H687-bH): -0.482
interaction score (4H3592-bH): 0.341
interaction score (4H1387-bH): -0.684
interaction score (4H1193-bH): -0.399
interaction score (4H4038-bH): 1.52
interaction score (4H1328-bH): 0.732
interaction score (4H462-bH): -1.11
interaction score (4H331-bH): -0.0475
interaction score (4H3782-bH): 1.32
interaction score (4H4001-bH): 0.425
interaction score (4H72-bH): -0.782
interaction score (4H3606-bH): -0.559
interaction score (4H3189-bH): -0.917
interaction score (4H2576-bH): 1.19
interaction score (4H953-bH): -1.33
interaction score (4H797-bH): -0.528
interaction score (4H3601-bH): 0
interaction score (4H918-bH): -1.33
interaction score (4H607-bH): -1.7
interaction score (4H2697-bH): -0.317
interaction score (4H883-bH): -0.574
interaction score (4H1446-bH): 0.131
interaction score (4H3843-bH): 0.181
B2: 4H1193-bH (peptide)
chain: DENQELEKENEELERKIWELKKEIQELER

interaction score (4H895-AA): -1.79
interaction score (4H486-AA): 1.13
interaction score (4H58-AA): -0.465
interaction score (P1-AA-1HGe-W): 2.15
interaction score (4H535-AA): -1.08
interaction score (4H3782-AA): -0.13
interaction score (4H2898-AA): 1.97
interaction score (4H_BCR): -1.7
interaction score (P1-AA-1HGe-Q): 2.33
interaction score (4H3705-AA): -0.91
interaction score (P1-AA-1HGe-T): 2.06
interaction score (4H3365-AA): -1.78
interaction score (P1-AA-1HGe-H): 1.92
interaction score (P1-AA-1HGe-A): 2.11
interaction score (4H3020-AA): -1.5
interaction score (4H_APH): -2.38
interaction score (P1-AA-1HGe-Y): 2.03
interaction score (4H3651-AA): -1.22
interaction score (GCN2_T): -1.81
interaction score (4H355-AA): -0.643
interaction score (P1-AA-1HGe-D): 2.05
interaction score (P1-AA-1HGe-R): 2.26
interaction score (4H2750-AA): -1.55
interaction score (4H_GCN4): -1.33
interaction score (P1-AA): 1.56
interaction score (P1-AA-1HGe-M): 2.44
interaction score (P1-AA-1HGe-S): 1.86
interaction score (4H465-AA): 2.28
B3: 4H2750-AA (peptide)
chain: DKIAALKAENAALEAKNAALKAKIAALKG
